Test system: MS2 coat protein
Assay: apparent KD of MS2 coat protein; designed switch direction (-1 OFF switch, 1 ON switch): -1; higher = weaker reporter binding
Method in brief: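 On Illumina chips, designed RNA switches with common flanks were made by stalled E. coli RNA polymerase. Titrations with SNAP-549-labelled MS2 coat protein, doubling from 0.7 or 1.5 nM to 3 µM, were done with no input, with 200 uM small-molecule ligand, or with an oligonucleotide input. Apparent KD is the median per design over clusters, from curve fits of normalised cluster fluorescence.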

[1] = input ligand: microRNA oligo, concentration not stated
[2] = Eterna round: R95, input ligand: FMN 200 uM
[3] = Eterna round: R95, input ligand: microRNA oligo, concentration not stated
[4] = Eterna round: R95, input ligand: none

Sequence | apparent KD of MS2 coat protein (input ligand: FMN 200 uM) | apparent KD of MS2 coat protein (input ligand: none) | apparent KD of MS2 coat protein [1] | apparent KD of MS2 coat protein [2] | apparent KD of MS2 coat protein [3] | apparent KD of MS2 coat protein [4]
CUUUACAAGCUAAGAUCCUACAUGAGGAUCACCCAUGUGGUCCGGUGACGUGAGUCACCGGACUUAGCUCGUCUUGC [salish99_S_TOV1_R5_094] (Eterna round: R97, puzzle: Sensor, turn-off variant 1) | 31.2 nM | 36.8 nM |  |  |  | 
CUGCUCCGUGUAGGAUAUGCGCGCAACCAACGCGCAGAAGGACAUGAGGAUCACCCAUGUAUGUUAUUAUCACGUGAAGCGCAA [Design 31] (Eterna round: R96, puzzle: Exclusion NG 1) | 16 nM | 13.2 nM | 12.3 nM |  |  | 
UAUUAACAAGUAAGAUCCCACAUGAGGAUCACCCAUGUGCUCGUCUUAUAAGGUACUGUGACGAAAGUCACGGUACC [Sensor 3, v1 - 87] (puzzle: Sensor v3, turn-off variant 1) |  |  |  | 16.9 nM | 953 nM | 13 nM
GAUACACAUGAGGAUCACCCAUGUGAGGAUAUGCGUACGUUGUCCGUAGGCGACGUGCGCAGAAGGCGCAAGGU [Mat - Mod of JL D96] (puzzle: Exclusion 1) |  |  |  |  | 55 nM | 
CAUUAUUAUCGAGGAUAUCGUAUUGAGAUACUAUGAGAAGGCGGGAUAAACAUGAGGAUCACCCAUGUGAGCCUGAUGCUUGUG [Ex NG1 #37] (Eterna round: R96, puzzle: Exclusion NG 1) | 17.4 nM | 19.3 nM | 14.3 nM |  |  | 
GCCAGAGCAGGAUAUUCAAUAAUCCACAUGAGGAUCACCCAUGUCCUGCGAAAGCAGGAGGGAGAAGGGCUCUGGC [Mat - Exclusion 5 - Eli mod - D89] (puzzle: Exclusion 5) |  |  |  | 37.7 nM | 75.7 nM | 81.9 nM
UGAUCUAGCGGAGGAUAUACAUGAGGAUCACCCAUGUAUACUCUAUGACCGUAGUCGUGGAGCGUGUAGAAGGCCGCUAGAUCU [JL ENG2 3.76] (Eterna round: R96, puzzle: Exclusion NG 2) | 14.6 nM | 11.6 nM | 9.1 nM |  |  | 
UUUCUUAAGUGGUCGCUUCACAUGAGGAUCACCCAUGUCGCCUCUAUGGCAUUAAAUACGAGCUUUUUGCUUGAAUU [Eternabot (L1) Solution 14] (Eterna round: R97, puzzle: Sensor, turn-off variant 1) | 312 nM | 385 nM |  |  |  | 
UAUUAUAAUGUAGGAUAUCUGCACGUUUAGUGCAGAGAAGGACAUGAGGAUCACCCAUGUAUAGUAGCUUCGGCUACAUUAUUU [ENG1-B2] (Eterna round: R96, puzzle: Exclusion NG 1) | 103 nM | 68.9 nM | 52.2 nM |  |  | 
UUUUAACAUGAGGAUCACCCAUGUGAGGAUAUCGAAAUUUAUAUUAAUAUUAUUAAUACGAGAAGGCACAUUUU [JMF 38] (puzzle: Exclusion 1) |  |  |  |  | 36.2 nM | 
GGGUUACAUGAGGAUCACCCAUGUGAGGAUAUGAUACUAUGUACUUCGGUACAUAGUAUCAGAAGGCACAUCCC [Ex1-3: 20] (puzzle: Exclusion 1) |  |  |  |  | 31.4 nM | 
UCAUGGUAGCAGGAUAUGCUAGAAAUUUUUUAUGCAGAAGGGCUUACAUGAGGAUCACCCAUGUGUUAGGUUUA [JR_E6_Sub071] (puzzle: Exclusion 6) |  |  |  | 22.3 nM | 110 nM | 221 nM
ACAUGAGGAUCACCCAUGUCCGGCUGGUCCGUCUCGGCUGUCGAGGAUAUGGCUCGGUGUCCGCGCUAGAAGGUGGGAGCCGGA [Aenatbe mod 75] (Eterna round: R96, puzzle: Exclusion NG 3) | 56.7 nM | 93.5 nM | 45.1 nM |  |  | 
UAAUACAAGUAGAGAUUCUACAUGAGGAUCACCCAUGUGCUCGUCUUAUAAAGUACUAUCACGAAAGUGAUAGUACU [Mat - Sensor v3 - turn-off var 1 - Eli Mod - D98] (puzzle: Sensor v3, turn-off variant 1) |  |  |  | 18.3 nM | 192 nM | 17.4 nM
GUGUGCUGAGGAUAUACAGAGGAAGAUAAGAUAAGAUAAUGACAUGAGGAUCACCCAUGUAGAAGGCAGAGUGU [Excluse me!! 15 - Jieux - Exclusion 2] (puzzle: Exclusion 2) |  |  |  |  | 30.5 nM | 
CCAGGCUGUGUGAGGAUAUGCUGGUCCUUGGAUCAGCAGAAGGCACAUGAGGAUCACCCAUGUGAAGAGCUUGG [JL bmx4 3.23] (puzzle: Brourd's mod of Exclusion 4) |  |  |  |  | 15.6 nM | 
CCGGAAAGGAAGGAUAUGCUAGACGAUAGUCUAGCAGAAGGUCCUACAUGAGGAUCACCCAUGUGUCCUCCCGG [Mat - Exclusion 6 - Eli Mod - D43] (Eterna round: R97, puzzle: Exclusion 6) | 1260 nM | 182 nM |  |  |  | 
CCAACGUGAGGAUAUGCAAUGCUAGCGGGAUCUUCUCUCCAACAUGAGGAUCACCCAUGUAGAAGGCGCUGUUG [Eternabot (L1) Solution 38] (Eterna round: R97, puzzle: Exclusion 2) | 198 nM | 97.1 nM |  |  |  | 
AUCAGCUCGUCAGGAUAUACAUGCGUGCUUCGGCACGUAUGAUAGAUCACAUGAGGAUCACCCAUGUAGAAGGGACGAGCUGAU [ENG2/4-B3] (Eterna round: R96, puzzle: Exclusion NG 2) | 15.3 nM | 12.7 nM | 9.19 nM |  |  | 
GCAAGCUUAAUCACUAUGAACAUGAGGAUCACCCAUGUAUAAGGUAUUACUUUUGGGCCCUUUAUUACUCGUCUUAU [JR_STOV1_Sub031] (Eterna round: R97, puzzle: Sensor, turn-off variant 1) | 51.9 nM | 54.4 nM |  |  |  | 
CUUAGCCUAAAAUCACGCAAGCUUUUCGCUUGUCUUAAGACAUGAGGAUCACCCAUGUCCGGGCUGAACUUAUGGAA [Esenma] (puzzle: Sensor v3, turn-off variant 2) |  |  |  | 18.3 nM | 19.2 nM | 18.5 nM
UUGUUAUAUGUAGGAUAUGCAUAUUAUUAUUAUGCAGAAGGACAUGAGGAUCACCCAUGUAUAUUAUUAUUAUAUAUUAUAUAU [Title] (Eterna round: R96, puzzle: Exclusion NG 1) |  |  | 22.4 nM |  |  | 
CUAUAGUAUGUAGGAUAUCGGUCAGUUUCUGAUCGAGAAGGACAUGAGGAUCACCCAUGUAAGGCUACCGGUUUCUGGUGGCCG [JL ENG1 3.54] (Eterna round: R96, puzzle: Exclusion NG 1) | 61.6 nM | 23.6 nM | 18.5 nM |  |  | 
AAUUCUAGGGUCAGACGCACAAGCUUUUUGCUCGUUUUAACAUGAGGAUCACCCAUGUCUAGUGGAUCUGAUCGGGC [JL ViennaUCT Isreen mod 8] (Eterna round: R96, puzzle: Sensor v3, turn-off variant 2) | 25.3 nM | 33.3 nM | 58.1 nM |  |  | 
UUCCUACAUGAGGAUCACCCAUGUCAGGAUAUCUCCUCACCGCGAAUGGGCAGUGAAUAGAGAAGGGACAGGAA [Aner] (puzzle: Exclusion 1) |  |  |  |  | 13.5 nM | 
UUUAUAUAGUAAGGAUAUGUAUUAUUUUUUACAACAGAAGGUACUGACAUGAGGAUCACCCAUGUUUUAGUGUGGGCAUGUAGU [JMF's solution 100] (Eterna round: R96, puzzle: Exclusion NG 1) |  |  | 217 nM |  |  | 

Reference: the supplement of paper PMC9170038
